From PMC3112443

What was measured:
[1] = non-reducing Western blot; conditions: glycan lost; control: wild type
[2] = supernatant titer on PFVL luciferase indicator cells; conditions: glycan lost; control: wild type

B1: human tetherin (HuTHN; BST-2, CD317, HM1.24): N65/92A (protein)
parent chain: MASTSYDYCRVPMEDGDKRCKLLLGIGILVLLIIVILGVPLIIFTIKANSEACRDGLRAVMECRNVTHLLQQELTEAQKGFQDVEAQAATCNHTVMALMASLDAEKAQGQKKVEELEGEITTLNHKLQDASAEVERLRRENQVLSVRIADKKYYPSSQDSSSAAAPQLLIVLLGLSALLQ
- oligomerisation [1]: no change
- other: inhibition of virus release [2]: no change
